# According to US20190314526A1:
# Like-named read-outs stand apart in the source and are kept apart here.
# How the values were obtained:
# [1] = target: AAV-2 with a wild-type capsid (rAAV-2 virion) (AAV-2) (UniProt P03135); assay: all-A20 ELISA, virus needed for half maximal OD, against wild type
# [2] = target: AAV-2 capsid mutant E394K (rAAV-2 virion) (AAV-2) (UniProt P03135); assay: cell-based or functional assay
# [3] = target: AAV-2 capsid mutant S127A (rAAV-2 virion) (AAV-2) (UniProt P03135); assay: cell-based or functional assay
# [4] = target: AAV-2 capsid mutant E437A (rAAV-2 virion) (AAV-2) (UniProt P03135); assay: cell-based or functional assay
# [5] = target: AAV-2 capsid mutant K569A (rAAV-2 virion) (AAV-2) (UniProt P03135); assay: cell-based or functional assay
# [6] = target: AAV-2 capsid mutant Q126A (rAAV-2 virion) (AAV-2) (UniProt P03135); assay: cell-based or functional assay
# [7] = target: AAV-2 capsid mutant V571K (rAAV-2 virion) (AAV-2) (UniProt P03135); assay: cell-based or functional assay
# [8] = target: AAV-2 capsid mutant Q248A (rAAV-2 virion) (AAV-2) (UniProt P03135); assay: cell-based or functional assay
# [9] = target: AAV-2 capsid mutant V571A (rAAV-2 virion) (AAV-2) (UniProt P03135); assay: cell-based or functional assay
# [10] = target: AAV-2 capsid mutant E411A (rAAV-2 virion) (AAV-2) (UniProt P03135); assay: cell-based or functional assay
# [11] = target: AAV-2 with a wild-type capsid (rAAV-2 virion) (AAV-2) (UniProt P03135); assay: cell-based or functional assay
# [12] = target: AAV-2 capsid mutant S247A (rAAV-2 virion) (AAV-2) (UniProt P03135); assay: cell-based or functional assay
# [13] = target: AAV-2 capsid mutant K407A (rAAV-2 virion) (AAV-2) (UniProt P03135); assay: cell-based or functional assay
# [14] = target: AAV-2 capsid mutant W365A (rAAV-2 virion) (AAV-2) (UniProt P03135); assay: cell-based or functional assay
# [15] = target: AAV-2 capsid mutant K395A (rAAV-2 virion) (AAV-2) (UniProt P03135); assay: cell-based or functional assay
# [16] = target: AAV-2 capsid mutant H134Q (rAAV-2 virion) (AAV-2) (UniProt P03135); assay: all-A20 ELISA, against wild type
# [17] = target: AAV-2 capsid mutant N568A (rAAV-2 virion) (AAV-2) (UniProt P03135); assay: all-A20 ELISA, against wild type
# [18] = target: AAV-2 capsid mutant N568A/V571A (rAAV-2 virion) (AAV-2) (UniProt P03135); assay: all-A20 ELISA, against wild type
# [19] = target: AAV-2 capsid mutant S130T (rAAV-2 virion) (AAV-2) (UniProt P03135); assay: all-A20 ELISA, against wild type
# [20] = target: AAV-2 capsid mutant E393D (rAAV-2 virion) (AAV-2) (UniProt P03135); assay: all-A20 ELISA, against wild type
# [21] = target: AAV-2 capsid mutant S130A (rAAV-2 virion) (AAV-2) (UniProt P03135); assay: all-A20 ELISA, against wild type
# [22] = target: AAV-2 capsid mutant E411A/T413A (rAAV-2 virion) (AAV-2) (UniProt P03135); assay: all-A20 ELISA, against wild type
# [23] = target: AAV-2 capsid mutant T413K (rAAV-2 virion) (AAV-2) (UniProt P03135); assay: all-A20 ELISA, against wild type
# [24] = target: AAV-2 capsid mutant N360H (rAAV-2 virion) (AAV-2) (UniProt P03135); assay: all-A20 ELISA, against wild type
# [25] = target: AAV-2 capsid mutant E411A/T413A/G449A/N450A (rAAV-2 virion) (AAV-2) (UniProt P03135); assay: all-A20 ELISA, against wild type
# [26] = target: AAV-2 capsid mutant D357E (rAAV-2 virion) (AAV-2) (UniProt P03135); assay: all-A20 ELISA, against wild type
# [27] = target: AAV-2 capsid mutant G449A (rAAV-2 virion) (AAV-2) (UniProt P03135); assay: all-A20 ELISA, against wild type
# [28] = target: AAV-2 capsid mutant V571K (rAAV-2 virion) (AAV-2) (UniProt P03135); assay: all-A20 ELISA, against wild type
# [29] = target: AAV-2 capsid mutant R334A (rAAV-2 virion) (AAV-2) (UniProt P03135); assay: all-A20 ELISA, against wild type
# [30] = target: AAV-2 capsid mutant H372K (rAAV-2 virion) (AAV-2) (UniProt P03135); assay: all-A20 ELISA, against wild type
# [31] = target: AAV-2 capsid mutant H372Q (rAAV-2 virion) (AAV-2) (UniProt P03135); assay: all-A20 ELISA, against wild type
# [32] = target: AAV-2 capsid mutant N568K (rAAV-2 virion) (AAV-2) (UniProt P03135); assay: all-A20 ELISA, against wild type
# [33] = target: AAV-2 capsid mutant D132N (rAAV-2 virion) (AAV-2) (UniProt P03135); assay: all-A20 ELISA, against wild type
# [34] = target: AAV-2 capsid mutant R334A/G449A (rAAV-2 virion) (AAV-2) (UniProt P03135); assay: all-A20 ELISA, against wild type
# [35] = target: AAV-2 capsid mutant G246A (rAAV-2 virion) (AAV-2) (UniProt P03135); assay: all-A20 ELISA, against wild type
# [36] = target: AAV-2 capsid mutant R334A/N568A (rAAV-2 virion) (AAV-2) (UniProt P03135); assay: all-A20 ELISA, against wild type
# [37] = target: AAV-2 capsid mutant G449A/N568A (rAAV-2 virion) (AAV-2) (UniProt P03135); assay: all-A20 ELISA, against wild type
# [38] = target: AAV-2 capsid mutant R334A/G449A/N568A (rAAV-2 virion) (AAV-2) (UniProt P03135); assay: all-A20 ELISA, against wild type
# [39] = target: primate AAV-4 capsid (rAAV virion) (primate AAV-4); assay: cell-based or functional assay
# [40] = target: primate AAV-8 capsid (rAAV virion) (primate AAV-8); assay: cell-based or functional assay
# [41] = target: primate AAV-1 capsid (rAAV virion) (primate AAV-1); assay: cell-based or functional assay
# [42] = target: primate AAV-3B capsid (rAAV virion) (primate AAV-3B); assay: cell-based or functional assay
# [43] = target: primate AAV-6 capsid (rAAV virion) (primate AAV-6); assay: cell-based or functional assay
# [44] = target: caprine (goat) AAV capsid (caprine rAAV virion) (caprine AAV); assay: cell-based or functional assay
# [45] = target: bovine AAV-C1 capsid (AAV-C1-LacZ vector) (bovine AAV); assay: cell-based or functional assay
# [46] = target: primate AAV-5 capsid (rAAV virion) (primate AAV-5); assay: cell-based or functional assay
# [47] = target: primate AAV-8 capsid (rAAV virion) (primate AAV-8); assay: cell-based or functional assay; remark: listed apart in the source
# [48] = target: caprine (goat) AAV capsid (caprine rAAV virion) (caprine AAV); assay: cell-based or functional assay; remark: listed apart in the source
substance,measurement,setting,value
murine monoclonal antibody A20 (protein A-purified anti-AAV-2 mouse monoclonal antibody),Fold decrease in binding of murine A20,[1],1 fold
same,Fold decrease in A20 titer,[2],0.9 fold
same,Fold decrease in neutralizing titer,[3],57 fold
same,neutralizing titer of A20 (reciprocal dilution),[3],9
same,Fold decrease in A20 titer,[4],0.8 fold
same,Fold decrease in A20 titer,[5],1.7 fold
same,Fold decrease in neutralizing titer,[6],2.5 fold
same,neutralizing titer of A20 (reciprocal dilution),[6],203
same,Fold decrease in A20 titer,[7],217 fold
same,Fold decrease in neutralizing titer,[8],5.7 fold
same,neutralizing titer of A20 (reciprocal dilution),[8],89
same,Fold decrease in A20 titer,[9],1.4 fold
same,Fold decrease in A20 titer,[10],2.7 fold
same,% neutralized at dilutions of A20 greater than 1:1000,[11],< 3%
same,Fold decrease in neutralizing titer,[11],1 fold
same,neutralizing titer of A20 (reciprocal dilution),[11],509
same,Fold decrease in neutralizing titer,[12],2.8 fold
same,neutralizing titer of A20 (reciprocal dilution),[12],180
same,Fold decrease in A20 titer,[13],1.6 fold
same,Fold decrease in A20 titer,[14],0.5 fold
same,Fold decrease in A20 titer,[15],0.9 fold
same,Fold decrease in binding of murine A20,[16],1 fold
same,Fold decrease in binding of murine A20,[17],1 fold
same,Fold decrease in binding of murine A20,[18],1 fold
same,Fold decrease in binding of murine A20,[19],1 fold
same,Fold decrease in binding of murine A20,[20],1 fold
same,Fold decrease in binding of murine A20,[21],1 fold
same,Fold decrease in binding of murine A20,[22],1 fold
same,Fold decrease in binding of murine A20,[23],1 fold
same,Fold decrease in binding of murine A20,[24],1 fold
same,Fold decrease in binding of murine A20,[25],1 fold
same,Fold decrease in binding of murine A20,[26],1 fold
same,Fold decrease in binding of murine A20,[27],1 fold
same,Fold decrease in binding of murine A20,[28],10 fold
same,Fold decrease in binding of murine A20,[29],1 fold
same,Fold decrease in binding of murine A20,[30],1 fold
same,Fold decrease in binding of murine A20,[31],1 fold
same,Fold decrease in binding of murine A20,[32],1 fold
same,Fold decrease in binding of murine A20,[33],1 fold
same,Fold decrease in binding of murine A20,[34],1 fold
same,Fold decrease in binding of murine A20,[35],1 fold
same,Fold decrease in binding of murine A20,[36],1 fold
same,Fold decrease in binding of murine A20,[37],1 fold
same,Fold decrease in binding of murine A20,[38],1 fold
"purified pooled human IgG IVIG-8 (Panglobulin Lot #1838-00351, ZLB Bioplasma AG)",% blue cells compared to the control at IVIg 8 0.01 ug/ul,[39],100%
same,% blue cells compared to the control at IVIg 8 0.1 ug/ul,[39],100%
same,% blue cells compared to the control at IVIg 8 1 ug/ul,[39],100%
same,% blue cells compared to the control at IVIg 8 50 ug/ul,[39],49%
same,Lowest concentration of IVIG showing >50% neutralization of the virus,[39],50 mg/mL
same,% blue cells compared to the control at IVIg 8 0.01 ug/ul,[40],90%
same,% blue cells compared to the control at IVIg 8 0.1 ug/ul,[40],88%
same,% blue cells compared to the control at IVIg 8 1 ug/ul,[40],77%
same,% blue cells compared to the control at IVIg 8 50 ug/ul,[40],0%
same,% of control transduction at IVIg 8 0.1 ug/ul,[40],105%
same,% of control transduction at IVIg 8 10 ug/ul,[40],44%
same,% of control transduction at IVIg 8 20 ug/ul,[40],11%
same,% of control transduction at IVIg 8 40 ug/ul,[40],0%
same,% of control transduction at IVIg 8 50 ug/ul,[40],0%
same,Lowest concentration of IVIG showing >50% neutralization of the virus,[40],50 mg/mL
same,% blue cells compared to the control at IVIg 8 0.01 ug/ul,[41],100%
same,% blue cells compared to the control at IVIg 8 0.1 ug/ul,[41],86%
same,% blue cells compared to the control at IVIg 8 10 ug/ul,[41],14%
same,% blue cells compared to the control at IVIg 8 50 ug/ul,[41],0%
same,Lowest concentration of IVIG showing >50% neutralization of the virus,[41],10 mg/mL
same,% blue cells compared to the control at IVIg 8 0.01 ug/ul,[42],92%
same,% blue cells compared to the control at IVIg 8 1 ug/ul,[42],45%
same,% blue cells compared to the control at IVIg 8 10 ug/ul,[42],0%
same,% blue cells compared to the control at IVIg 8 50 ug/ul,[42],0%
same,Lowest concentration of IVIG showing >50% neutralization of the virus,[42],1 mg/mL
same,% blue cells compared to the control at IVIg 8 0.01 ug/ul,[43],100%
same,% blue cells compared to the control at IVIg 8 0.1 ug/ul,[43],81%
same,% blue cells compared to the control at IVIg 8 10 ug/ul,[43],14%
same,% blue cells compared to the control at IVIg 8 50 ug/ul,[43],0%
same,Lowest concentration of IVIG showing >50% neutralization of the virus,[43],10 mg/mL
same,% of control transduction at IVIg 8 0.1 ug/ul,[44],120%
same,% of control transduction at IVIg 8 1 ug/ul,[44],93%
same,% of control transduction at IVIg 8 10 ug/ul,[44],80%
same,% of control transduction at IVIg 8 40 ug/ul,[44],14%
same,% of control transduction at IVIg 8 50 ug/ul,[44],8%
same,Lowest concentration of IVIG showing >50% neutralization of the virus,[44],50 mg/mL
same,fold more resistant to neutralization by human IVIG than AAV-2,[45],16 fold
same,lowest concentration of IVIG showing more than 50% neutralization,[45],3.25 mg/mL
same,% blue cells compared to the control at IVIg 8 0.01 ug/ul,[11],100%
same,% blue cells compared to the control at IVIg 8 0.1 ug/ul,[11],100%
same,% blue cells compared to the control at IVIg 8 10 ug/ul,[11],2%
same,% blue cells compared to the control at IVIg 8 50 ug/ul,[11],0%
same,Lowest concentration of IVIG showing >50% neutralization of the virus,[11],10 mg/mL
same,lowest concentration of IVIG showing more than 50% neutralization,[11],0.2 mg/mL
same,% blue cells compared to the control at IVIg 8 0.1 ug/ul,[46],17%
same,% blue cells compared to the control at IVIg 8 1 ug/ul,[46],1%
same,% blue cells compared to the control at IVIg 8 10 ug/ul,[46],1%
same,% blue cells compared to the control at IVIg 8 50 ug/ul,[46],0%
same,Lowest concentration of IVIG showing >50% neutralization of the virus,[46],0.1 mg/mL
same,Lowest concentration of IVIG showing >50% neutralization of the virus,[47],10 mg/mL
same,Lowest concentration of IVIG showing >50% neutralization of the virus,[48],40 mg/mL
